{
  "source": "IntAct's records for PubMed 29039417",
  "parents": {"B1": {"name": "BBSome complex member BBS2 (Homo sapiens), Q9BXC9 (parent)", "chain": "MLLPVFTLKLRHKISPRMVAIGRYDGTHPCLAAATQTGKVFIHNPHTRNQHVSASRVFQSPLESDVSLLSINQAVSCLTAGVLNPELGYDALLVGTQTNLLAYDVYNNSDLFYREVADGANAIVLGTLGDISSPLAIIGGNCALQGFNHEGSDLFWTVTGDNVNSLALCDFDGDGKKELLVGSEDFDIRVFKEDEIVAEMTETEIVTSLCPMYGSRFGYALSNGTVGVYDKTSRYWRIKSKNHAMSIHAFDLNSDGVNELITGWSNGKVDARSDRTGEVIFKDNFSSAIAGVVEGDYRMDGHIQLICCSVDGEIRGYLPGTAEMRGNLMDTSAEQDLIRELSQKKQNLLLELRNYEENAKAELASPLNEADGHRGIIPANTRLHTTLSVSLGNETQTAHTELRISTSNDTIIRAVLIFAEGIFTGESHVVHPSIHNLSSSICIPIVPPKDVPVDLHLKAFVGYRSSTQFHVFESTRQLPRFSMYALTSLDPASEPISYVNFTIAERAQRVVVWLGQNFLLPEDTHIQNAPFQVCFTSLRNGGHLHIKIKLSGEITINTDDIDLAGDIIQSMASFFAIEDLQVEADFPVYFEELRKVLVKVDEYHSVHQKLSADMADHSNLIRSLLVGAEDARLMRDMKTMKSRYMELYDLNRDLLNGYKIRCNNHTELLGNLKAVNQAIQRAGRLRVGKPKNQVITACRDAIRSNNINTLFKIMRVGTASS", "partner": "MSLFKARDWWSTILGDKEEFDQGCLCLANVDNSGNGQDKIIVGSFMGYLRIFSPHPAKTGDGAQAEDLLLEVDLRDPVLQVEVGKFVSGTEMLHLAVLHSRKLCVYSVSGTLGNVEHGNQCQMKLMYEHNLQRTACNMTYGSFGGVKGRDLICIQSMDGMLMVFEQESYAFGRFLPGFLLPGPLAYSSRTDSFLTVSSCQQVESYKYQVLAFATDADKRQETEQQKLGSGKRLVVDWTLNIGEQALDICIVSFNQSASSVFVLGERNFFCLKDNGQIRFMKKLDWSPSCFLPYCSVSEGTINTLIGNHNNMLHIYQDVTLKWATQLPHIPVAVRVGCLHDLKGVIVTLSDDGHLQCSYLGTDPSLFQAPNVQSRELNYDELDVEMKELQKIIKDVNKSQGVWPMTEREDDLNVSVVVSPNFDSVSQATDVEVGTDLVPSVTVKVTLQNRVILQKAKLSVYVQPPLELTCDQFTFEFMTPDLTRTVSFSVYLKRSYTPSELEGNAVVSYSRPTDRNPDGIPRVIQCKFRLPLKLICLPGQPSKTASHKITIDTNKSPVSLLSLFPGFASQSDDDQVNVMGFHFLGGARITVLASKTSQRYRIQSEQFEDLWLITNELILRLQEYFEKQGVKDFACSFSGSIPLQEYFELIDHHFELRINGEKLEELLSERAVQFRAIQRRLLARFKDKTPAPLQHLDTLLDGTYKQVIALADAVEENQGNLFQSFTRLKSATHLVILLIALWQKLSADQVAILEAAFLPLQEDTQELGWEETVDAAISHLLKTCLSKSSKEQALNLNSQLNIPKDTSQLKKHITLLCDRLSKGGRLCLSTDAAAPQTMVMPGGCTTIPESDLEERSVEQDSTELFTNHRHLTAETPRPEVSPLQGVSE"}},
  "data": [
    {"variants_of": "B1", "details": "with pthb1_human BBS9, Q3SYG4", "values": [
      {"variant": "I713A", "effect of a mutation on the interaction": "with no effect"},
      {"variant": "I713K", "effect of a mutation on the interaction": "with no effect"},
      {"variant": "I713E", "effect of a mutation on the interaction": "with no effect"},
      {"variant": "R699E", "effect of a mutation on the interaction": "with no effect"},
      {"variant": "R699A", "effect of a mutation on the interaction": "with no effect"},
      {"variant": "R699K", "effect of a mutation on the interaction": "with no effect"},
      {"variant": "V716A", "effect of a mutation on the interaction": "with no effect"},
      {"variant": "V716E", "effect of a mutation on the interaction": "with no effect"},
      {"variant": "V716K", "effect of a mutation on the interaction": "with no effect"},
      {"variant": "N705E", "effect of a mutation on the interaction": "with no effect"},
      {"variant": "N705A", "effect of a mutation on the interaction": "with no effect"},
      {"variant": "N705K", "effect of a mutation on the interaction": "with no effect"},
      {"variant": "I702K", "effect of a mutation on the interaction": "with no effect"},
      {"variant": "I702E", "effect of a mutation on the interaction": "with no effect"},
      {"variant": "I702A", "effect of a mutation on the interaction": "with no effect"},
      {"variant": "T696K", "effect of a mutation on the interaction": "with no effect"},
      {"variant": "T696E", "effect of a mutation on the interaction": "with no effect"},
      {"variant": "T696A", "effect of a mutation on the interaction": "with no effect"},
      {"variant": "R686K", "effect of a mutation on the interaction": "with no effect"},
      {"variant": "V687E", "effect of a mutation on the interaction": "with no effect"},
      {"variant": "V687K", "effect of a mutation on the interaction": "with no effect"},
      {"variant": "V687A", "effect of a mutation on the interaction": "with no effect"},
      {"variant": "F711A", "effect of a mutation on the interaction": "with no effect"},
      {"variant": "F711E", "effect of a mutation on the interaction": "with no effect"},
      {"variant": "F711K", "effect of a mutation on the interaction": "with no effect"},
      {"variant": "T709K", "effect of a mutation on the interaction": "with no effect"},
      {"variant": "T709E", "effect of a mutation on the interaction": "with no effect"},
      {"variant": "T709A", "effect of a mutation on the interaction": "with no effect"},
      {"variant": "L710A", "effect of a mutation on the interaction": "with no effect"},
      {"variant": "L710K", "effect of a mutation on the interaction": "with no effect"},
      {"variant": "L710E", "effect of a mutation on the interaction": "with no effect"},
      {"variant": "G688A", "effect of a mutation on the interaction": "with no effect"},
      {"variant": "G688E", "effect of a mutation on the interaction": "with no effect"},
      {"variant": "R715E", "effect of a mutation on the interaction": "with no effect"},
      {"variant": "R715A", "effect of a mutation on the interaction": "with no effect"},
      {"variant": "R715K", "effect of a mutation on the interaction": "with no effect"},
      {"variant": "K691E", "effect of a mutation on the interaction": "with no effect"},
      {"variant": "K691A", "effect of a mutation on the interaction": "with no effect"},
      {"variant": "S721K", "effect of a mutation on the interaction": "with no effect"},
      {"variant": "S721E", "effect of a mutation on the interaction": "with no effect"},
      {"variant": "S721A", "effect of a mutation on the interaction": "with no effect"},
      {"variant": "I695E", "effect of a mutation on the interaction": "with no effect"},
      {"variant": "I695K", "effect of a mutation on the interaction": "with no effect"},
      {"variant": "I695A", "effect of a mutation on the interaction": "with no effect"},
      {"variant": "S720E", "effect of a mutation on the interaction": "with no effect"},
      {"variant": "S720K", "effect of a mutation on the interaction": "with no effect"},
      {"variant": "S720A", "effect of a mutation on the interaction": "with no effect"},
      {"variant": "N706K", "effect of a mutation on the interaction": "with no effect"},
      {"variant": "N706E", "effect of a mutation on the interaction": "with no effect"},
      {"variant": "N706A", "effect of a mutation on the interaction": "with no effect"},
      {"variant": "V694E", "effect of a mutation on the interaction": "with no effect"},
      {"variant": "V694A", "effect of a mutation on the interaction": "with no effect"}
    ]}
  ]
}
